Data on 2 molecules can be found in patent US20170189519A1.

What all share (details): remark: other sources report otherwise
For test [1], the target named is s127H1-t2-cl18long. The test is described as follows: SEC-MALS of trimer with Fab fragments; value in brackets is the theoretical one. A general note: In gel filtration, larger molecules generally elute earlier.
Test [2] addresses s127H1-t2-cl18long. The test is described as follows: Kd app from steady state Octet (biolayer interferometry), antibody immobilized.
In test [3] the target is UFV150124 (influenza A virus H1 A/Brisbane/59/2007).
The target of test [4] is UFV150135 (influenza A virus H1 A/California/07/2009).
For test [5], the target named is UFV150134 (influenza A virus H1 A/California/07/2009).
For test [6], the target named is UFV150125 (influenza A virus H1 A/Brisbane/59/2007).

B1: Fab fragment of CR6261 (Fab, V domains shown)
VH: EVQLVESGAEVKKPGSSVKVSCKASGGPFRSYAISWVRQAPGQGPEWMGGIIPIFGTTKYAPKFQGRVTITADDFAGTVYMELSSLRSEDTAMYYCAKHMGYQVRETMDVWGKGTTVTVSS
VL: QSVLTQPPSVSAAPGQKVTISCSGSSSNIGNDYVSWYQQLPGTAPKLLIYDNNKRPSGIPDRFSGSKSGTSATLGITGLQTGDEANYYCATWDRRPTAYVVFGGGTKLTVLG
In test [1], B1 gave a Mw of trimer protein complex with CRF6261 of 216 kDa.

B2: CR6261 (antibody, V domains shown)
VH: B1 VH
VL: B1 VL
The molecule B2 came in with a Kd in test [2] of 0.5 nM. Further, the CR6261 binding AlphaLISA (counts) came to 572000 counts in test [3], 625000 counts in test [4], 587000 counts in test [5] and 475000 counts in test [6].
